Assay results taken from PMC9896449.
pKd: −log10 of the molar value.

Key:
[1] = molecular target: BiShAb0201 (ShAb02 VNAR - (GGGGS)5 - ShAb01 VNAR - human IgG1 Fc) (nurse shark (Ginglymostoma cirratum)); experiment: BLI
[2] = molecular target: ShAb01H02K (knob-in-hole heterodimer of ShAb01-Fc and ShAb02-Fc) (nurse shark (Ginglymostoma cirratum)); experiment: BLI

Substance: SARS-CoV-2 WA-1 spike receptor binding domain (RBD) (from UniProt P0DTC2 331-527) (domain or fragment)
- pKd [1]: 8.97
- koff [1]: 2.82e-05 s⁻¹
- kon [1]: 26300 M⁻¹ s⁻¹
- pKd [2]: 9.24
- koff [2]: 6.98e-05 s⁻¹
- kon [2]: 122000 M⁻¹ s⁻¹
